The results in this text go back to a protein production outcome set (Wang et al. 2014).

The nature of this data set: label from the status in PepcDB records.
Regarding “MLLRSPSYAGKAAQAQEGDAYGVYQLATLLIGMDAEDETSCLLAADALYRLGRLDDAHKSLLVALSQRPQAAPVLVRLALLQLRRGFCYDANQLVKKVAQSGDTACLQHMLDIFHHEDLQLLQDHCHTRALSILRARPGGSDSEAHTREAIAYLSLAIFAAGSGGSESLLVRARCYGLLGQKKTAMFDFNAILREEPGNVKALCGRALVHLALDQLQEAVDDMVSALKLDPGTVTPEILSLKTEVQLPLTQGLYTRCRVLLNQCLHTGVPLREEDTQGLLATGKALIRINATQPSWRLLLTDILTGLGKYQEAGTHLQEALHLTPSSEAAQARQGLLQLKKGDVSAAAHGLQCLAERDTQDLGFLLRLLDSPERQSLVQTAAKEASNILDLGNPGQALSYCSLAILAGGNNPYHLRLRVACLTQLREYDRALRDLDRVLQHPAEDSDLPRRSEDFCTRGRLLLSLGDKDGAAGAFTQALALAPAQAQNSLLEQPGQAMTASVFLIHGQRCLEEQHFEEAWTAVQNGLLVDPSHSGLKKLKLRTRKVATSGCRLH”, the protein production entry is listed as “failed”. As for “MLLSHIMGMDYIMSIITLALLLLAEILVAIILIGVSIEICSYGWKKSNGIKYSCLLLSLLLGTASILGLLAAPAYFFIQLTEKAL”, the entry is “failed”; as for “MLLSVIITAQGRKGYVMQAVRSVLSQNIPKEDFEIIVSKDFKDDVIDEFLDGRAIVLNENHIRSGSRVASAVLQSSGKILVFLDDDDLFYPGKLREVKIVFSEMGVDYFKNSVKPVAESGDTVSYYQPAIKSDIFVKEPNEQDIRKLLKLRAGFNSSSISLKKDILVGYLDVLSKINLAVDSFYFFLYMSHSRPIYYSKKTLSLYRVLSKSTSRDVRNINAYAEFKSKFYELYSRDFETISEMASDGPCSKLAKTEFHLQMAYKWIFNTYRKEERPRMLHTLASSIYSHDPFIALPWPSFMKKIVQRREYFREKKLLSENTELEHHHHHH”, “failed”. “MLLTLALVILFATIMVFFSQEFIRTFKKILAIRGAKLLIPLGIASWLIYNFDYLFIWVIYYIREVLQAVLAFLTRIMPFKPYSTSIALIILLTTVSVGPVLLLDLIYRKRTYKGYAYPYLTSTLILIFCTLILLVVS”: the protein production entry is “failed”. As for “MLLTLPAPLRRALWAQVRRELPRECVGALGGWVRGEQVQAHALYPLPNVAADPEREYLADPGDLLRVVRAMQREGLDLVALYHSHPHGPAAPSASDRRLAAYPVPYLIADPAAEVLRAYLLPGGEEVEVRSADESNLEHHHHHH”, the protein production result is “failed”. As for “MLMSEIGQIAAILATAREVAVATHIIPDGDCLGSMLGLTLALRKRGTSVIAINADPVPEMFQYLPGQETIIDPDQVTSMPPLLVMVDCTDMERAGKGFSNWQQRVEKIINIDHHVSNTRFGHLNLVDSRAAATAELIYAVLEQIPATFTPEVATCLYTALATDTGSFQYENCTARTLRLAASLLEKGADMPLIREHLWESKPLNSIRLLAATLPTLTLAYEGRVAWMTVSRAALEANGARPEHAEGLVNYPRSIAGVEVGMLFRELPDGKVKVSLRSKKIVDVNRVAALFGGGGHRRAAGCTLDGDLDTVVARVVAAAGEAL”, the protein production result is reported as “failed”.

As to “MLMVFALLVSLAFASYHPDDAVVLRSADWSEVVLNPQSAQADGPVQNVLGLLGAQLAEACVPGFIGYGVLLISGLLMVWGYAVFRHASLRRLLYPSLLTAFSAFILSCVVGWVHHTVDAPLRAWAGLVGIGTAGWMQNVFGEVGSFILLLLAGAVLLLLVVDHDIQRTVDRVIRAARRIGAGVSAAGAYIRDQWSRARAHAPEPKATSPASDPSSSASASGSPSASSPEPPSSPPAEESTSSPPPARTRPEDSGAQTPSVRRNDLFRPGRDPAPSATDDNTASPEPAPDSSARTSDADPPEDDAPKDIPDETTASTPAEESPATDSPPPSRPADENASSDEPAAPAPDEPPPDASDGPDDDVSMTIQEQVEEETTDEIERTAELPDDFEYEPPSLDLLDESVDTDPTINREELEENKRVLLDKLDMYNIEIEEINAVVGPTVTRYELTPAPGIKVSRIKSLEDDLAMAMAAPGIRMIAPIPGKSAVGVEIPNRNRELVRLRDVIGTRKFQDTDLKLPLPLGKNIEGEVHVGDLATMPHLLIAGATGSGKSVGLNSIITGLIYACHPANLRFVIIDPKKIELQQYTALETQFVAVPEDIDQTVITDIDEASGVLKSVEREMETRYDLLSDASVRNITGYNEKFQAGELDPTEGHRHMPYLVVVVDELADLMMAAGDDVEGPISRLAQMARAVGIHLILATQRPSVDVVTGVIKANFPSRIAFEVASRVDSRTILDQGGAEDLVGNGDMLFLSGSDLKRLQGPFVSVEEVEEVVDYVADQPGVTPYTLPSLQDAGHGPDETLGVEDTDEKFEEAARVIVRRQQGSVSLLQRKLAVGYTRAARIVDQLEEAGIVGPFNGTKARDVLVDDEQALDDLLHGEDADEADPEEA”, the protein production result is recorded as “failed”.
